Experimental data: patent US20230132049A1 (Genmab, published 2023)
Like-named read-outs stand apart in the source and are kept apart here.

Key:
[1] = biological target: T1, rhesus monkey (Macaca mulatta) CD30 (rhesus monkey, UniProt P28908 19-595 (human entry)); experiment: flow cytometry on Expi293F cells transfected with rhesus monkey CD30
T1 construct: Full-length construct expressed in Expi293F cells; also called mmCD30
T1 chain: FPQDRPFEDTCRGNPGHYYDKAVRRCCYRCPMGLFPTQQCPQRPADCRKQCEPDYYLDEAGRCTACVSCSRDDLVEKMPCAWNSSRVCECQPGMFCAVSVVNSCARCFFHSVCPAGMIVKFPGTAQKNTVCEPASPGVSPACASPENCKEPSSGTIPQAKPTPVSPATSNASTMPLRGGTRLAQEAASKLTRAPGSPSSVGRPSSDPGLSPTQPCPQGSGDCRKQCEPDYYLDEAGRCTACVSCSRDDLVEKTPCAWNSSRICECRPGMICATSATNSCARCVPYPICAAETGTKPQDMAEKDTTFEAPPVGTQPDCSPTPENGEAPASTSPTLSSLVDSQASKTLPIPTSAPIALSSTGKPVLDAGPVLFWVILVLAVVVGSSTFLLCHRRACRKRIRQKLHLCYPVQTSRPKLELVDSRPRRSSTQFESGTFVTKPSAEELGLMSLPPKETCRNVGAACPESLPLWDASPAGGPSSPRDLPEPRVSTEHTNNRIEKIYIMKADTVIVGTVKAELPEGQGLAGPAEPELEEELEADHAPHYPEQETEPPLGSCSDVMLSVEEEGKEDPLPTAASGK
Procedure: (§1) Cells (3×10⁴ cells/well) were incubated in polystyrene 96-well round-bottom plates (Thermo Scientific, cat. no. 163320) with serial dilutions of antibodies (ranging from 0.0002 to 50 μg/mL in 4-fold dilution steps) in 50 μL staining buffer at 4° C. for 30 min. Experiments were performed in technical duplicate. After washing twice in staining buffer, cells were incubated in 50 μL secondary antibody at 4° C. for 30 min. […] Cells were washed twice in staining buffer, resuspended in 30 μL staining buffer containing 0.4% EDTA and the ToPro-3 viability marker (Invitrogen, cat. no. T3605) diluted 1:10,000. Cells were analyzed on an iQue Screener (Intellicyt Corporation, USA). Binding curves were analyzed using non-linear regression (sigmoidal dose-response with variable slope) using GraphPad Prism V9.0.0 software (GraphPad Software, San Diego, Calif., USA).

human CD30 [2] = biological target: T2, human CD30 (human, UniProt P28908 19-595); experiment: cell-based or functional assay
T2 sequence: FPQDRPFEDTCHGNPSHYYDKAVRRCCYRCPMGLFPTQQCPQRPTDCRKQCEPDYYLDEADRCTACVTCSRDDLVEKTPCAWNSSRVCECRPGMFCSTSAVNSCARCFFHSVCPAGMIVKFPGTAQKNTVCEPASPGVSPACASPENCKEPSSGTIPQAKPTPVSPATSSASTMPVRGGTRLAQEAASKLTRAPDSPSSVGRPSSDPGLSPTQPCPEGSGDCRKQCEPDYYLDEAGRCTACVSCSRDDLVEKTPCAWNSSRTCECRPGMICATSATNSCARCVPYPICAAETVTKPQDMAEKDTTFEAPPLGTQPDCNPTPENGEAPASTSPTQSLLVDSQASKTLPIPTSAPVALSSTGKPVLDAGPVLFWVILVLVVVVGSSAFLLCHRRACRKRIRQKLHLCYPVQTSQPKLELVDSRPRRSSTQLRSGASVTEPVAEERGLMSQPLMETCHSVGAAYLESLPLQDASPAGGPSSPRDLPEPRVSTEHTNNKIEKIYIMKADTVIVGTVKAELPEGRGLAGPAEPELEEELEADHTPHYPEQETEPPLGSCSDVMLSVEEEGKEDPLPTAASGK

human CD30 [3] = biological target: T2, human CD30; experiment: flow cytometry on Expi293F cells transfected with human CD30
Procedure: as §1

[4] = biological target: T1, rhesus monkey (Macaca mulatta) CD30; experiment: flow cytometry on Expi293F cells transfected with rhesus monkey CD30

B1: bsG1-huCD3-FEAL×CD30-T215-FEAR (bispecific antibody, human IgG1, kappa, lambda)
heavy 1: not shown
light 1: not shown
heavy 2: not shown
light 2: DIVMTQSQKFMSTSVGDRVSVTCKASQNVFTNVAWYQQKLGQSPKPLIYSASYRYSGVPDRFTGSGSGTDFTLTISDVQSEDLAEYFCQQYNSYPVTFGAGTKLELKRTVAAPSVFIFPPSDEQLKSGTASVVCLLNNFYPREAKVQWKVDNALQSGNSQESVTEQDSKDSTYSLSSTLTLSKADYEKHKVYACEVTHQGLSSPVTKSFNRGEC
notes: Bispecific IgG1 by Fab-arm exchange of the two parental antibodies; also called bsIgG1-huCD3-FEAL×CD30-T215-FEAR
- binding result [1]: binds
- cytotoxicity IC50 (µg/mL) average, Karpas-299 cells (human CD30 [2]): 0.077 µg/mL
- cytotoxicity maximum lysis (%) average, Karpas-299 cells (human CD30 [2]): 42.8%

B2: bsG1-huCD3-FEAL×CD30-HRS-3-FEAR (bispecific antibody, human IgG1, kappa, lambda)
heavy 1: not shown
light 1: not shown
heavy 2: QVQLQQSGAELARPGASVKMSCKASGYTFTTYTIHWVRQRPGHDLEWIGYINPSSGYSDYNQNFKGKTTLTADKSSNTAYMQLNSLTSEDSAVYYCARRADYGNYEYTWFAYWGQGTTVTVSSASTKGPSVFPLAPSSKSTSGGTAALGCLVKDYFPEPVTVSWNSGALTSGVHTFPAVLQSSGLYSLSSVVTVPSSSLGTQTYICNVNHKPSNTKVDKRVEPKSCDKTHTCPPCPAPEFEGGPSVFLFPPKPKDTLMISRTPEVTCVVVAVSHEDPEVKFNWYVDGVEVHNAKTKPREEQYNSTYRVVSVLTVLHQDWLNGKEYKCKVSNKALPAPIEKTISKAKGQPREPQVYTLPPSREEMTKNQVSLTCLVKGFYPSDIAVEWESNGQPENNYKTTPPVLDSDGSFFLYSRLTVDKSRWQQGNVFSCSVMHEALHNHYTQKSLSLSPG
light 2: DIVMTQSPKFMSTSVGDRVTVTCKASQNVGTNVAWFQQKPGQSPKVLIYSASYRYSGVPDRFTGSGSGTDFTLTISNVQSEDLAEYFCQQYHTYPLTFGGGTKLEINRTVAAPSVFIFPPSDEQLKSGTASVVCLLNNFYPREAKVQWKVDNALQSGNSQESVTEQDSKDSTYSLSSTLTLSKADYEKHKVYACEVTHQGLSSPVTKSFNRGEC
- cytotoxicity IC50 (µg/mL) average, Karpas-299 cells (human CD30 [2]): 0.068 µg/mL
- cytotoxicity maximum lysis (%) average, Karpas-299 cells (human CD30 [2]): 47.5%

B3: bsG1-huCD3-FEAL×CD30-T105-FEAR (bispecific antibody, human IgG1, kappa, lambda)
heavy 1: not shown
light 1: not shown
heavy 2: not shown
light 2: DIVMTQSQKFMSTSVGDRVSVTCKASQNVNTNVAWYQQKPGQSPEALIYSASYRYSGVPDRFTGSGSGTDFTLTISNVQSEDLAEYFCQQYNSYPLTFGSGTKLEIKRTVAAPSVFIFPPSDEQLKSGTASVVCLLNNFYPREAKVQWKVDNALQSGNSQESVTEQDSKDSTYSLSSTLTLSKADYEKHKVYACEVTHQGLSSPVTKSFNRGEC
notes: Bispecific IgG1 by Fab-arm exchange of the two parental antibodies; also called bsIgG1-huCD3-FEAL×CD30-T105-FEAR
- EC50 (read off the curve) (human CD30 [3]): ~0.2 µg/mL
- cytotoxicity IC50 (µg/mL) average, Karpas-299 cells (human CD30 [2]): 0.042 µg/mL
- cytotoxicity maximum lysis (%) average, Karpas-299 cells (human CD30 [2]): 52.6%

B4: bsG1-huCD3-FEAL×CD30-hAC10-FEAR (bispecific antibody, human IgG1, kappa, lambda)
heavy 1: not shown
light 1: not shown
heavy 2: QVQLVQSGAEVKKPGASVKVSCKASGYTFTDYYITWVRQAPGQGLEWMGWIYPGSGNTKYNEKFKGRVTMTRDTSISTAYMELSRLRSDDTAVYYCANYGNYWFAYWGQGTLVTVSSASTKGPSVFPLAPSSKSTSGGTAALGCLVKDYFPEPVTVSWNSGALTSGVHTFPAVLQSSGLYSLSSVVTVPSSSLGTQTYICNVNHKPSNTKVDKRVEPKSCDKTHTCPPCPAPEFEGGPSVFLFPPKPKDTLMISRTPEVTCVVVAVSHEDPEVKFNWYVDGVEVHNAKTKPREEQYNSTYRVVSVLTVLHQDWLNGKEYKCKVSNKALPAPIEKTISKAKGQPREPQVYTLPPSREEMTKNQVSLTCLVKGFYPSDIAVEWESNGQPENNYKTTPPVLDSDGSFFLYSRLTVDKSRWQQGNVFSCSVMHEALHNHYTQKSLSLSPG
light 2: not shown
notes: Bispecific IgG1 by Fab-arm exchange of the two parental antibodies
- EC50 (read off the curve) (human CD30 [3]): ~0.06 µg/mL
- cytotoxicity IC50 (µg/mL) average, Karpas-299 cells (human CD30 [2]): 0.032 µg/mL
- cytotoxicity maximum lysis (%) average, Karpas-299 cells (human CD30 [2]): 37.8%
- binding result [4]: binds

B5: IgG1-CD30-T215-FEAR (antibody, V domains shown)
VH: QVTLKESGPGILQPSQTLSLTCSFSGFSLSVSGMGVSWIRQPSGKGLEWLAHIHWDDDRRSNPSLRSRLTISKDTSNNQVFLKITSVDTADTATYYCARRPDLYGNYFFFDFWGQGTTLTVSS
VL: DIVMTQSQKFMSTSVGDRVSVTCKASQNVFTNVAWYQQKLGQSPKPLIYSASYRYSGVPDRFTGSGSGTDFTLTISDVQSEDLAEYFCQQYNSYPVTFGAGTKLELKR
notes: Monospecific, bivalent parental antibody
- binding result [1]: binds

B6: bsG1-huCD3-FEAL×CD30-MDX060-FEAR (bispecific antibody, human IgG1, kappa, lambda)
heavy 1: not shown
light 1: not shown
heavy 2: QVQLQQWGAGLLKPSETLSLTCAVYGGSFSAYYWSWIRQPPGKGLEWIGDINHGGGTNYNPSLKSRVTISVDTSKNQFSLKLNSVTAADTAVYYCASLTAYWGQGSLVTVSSASTKGPSVFPLAPSSKSTSGGTAALGCLVKDYFPEPVTVSWNSGALTSGVHTFPAVLQSSGLYSLSSVVTVPSSSLGTQTYICNVNHKPSNTKVDKRVEPKSCDKTHTCPPCPAPEFEGGPSVFLFPPKPKDTLMISRTPEVTCVVVAVSHEDPEVKFNWYVDGVEVHNAKTKPREEQYNSTYRVVSVLTVLHQDWLNGKEYKCKVSNKALPAPIEKTISKAKGQPREPQVYTLPPSREEMTKNQVSLTCLVKGFYPSDIAVEWESNGQPENNYKTTPPVLDSDGSFFLYSRLTVDKSRWQQGNVFSCSVMHEALHNHYTQKSLSLSPG
light 2: DIQMTQSPTSLSASVGDRVTITCRASQGISSWLTWYQQKPEKAPKSLIYAASSLQSGVPSRFSGSGSGTDFTLTISSLQPEDFATYYCQQYDSYPITFGQGTRLEIKRTVAAPSVFIFPPSDEQLKSGTASVVCLLNNFYPREAKVQWKVDNALQSGNSQESVTEQDSKDSTYSLSSTLTLSKADYEKHKVYACEVTHQGLSSPVTKSFNRGEC
notes: also called bsG1-huCD3xCD30-MDX060
- EC50 (read off the curve) (human CD30 [3]): ~0.1 µg/mL
- cytotoxicity IC50 (µg/mL) average, Karpas-299 cells (human CD30 [2]): 0.033 µg/mL
- cytotoxicity maximum lysis (%) average, Karpas-299 cells (human CD30 [2]): 53.7%

B7: bsG1-huCD3-FEAL×CD30-T408-FEAR (bispecific antibody, human IgG1, kappa, lambda)
heavy 1: not shown
light 1: not shown
heavy 2: QVQLQQPGAELVRPGASVKLSCKASGYTFTSYWINWVKQRPGQGLEWIGNIYPSDSYSNYNQKFKDKATLTVDKSSSTAYMQLSSPTSEDSAVYYCTLGSYWGQGTLVTVSAASTKGPSVFPLAPSSKSTSGGTAALGCLVKDYFPEPVTVSWNSGALTSGVHTFPAVLQSSGLYSLSSVVTVPSSSLGTQTYICNVNHKPSNTKVDKRVEPKSCDKTHTCPPCPAPEFEGGPSVFLFPPKPKDTLMISRTPEVTCVVVAVSHEDPEVKFNWYVDGVEVHNAKTKPREEQYNSTYRVVSVLTVLHQDWLNGKEYKCKVSNKALPAPIEKTISKAKGQPREPQVYTLPPSREEMTKNQVSLTCLVKGFYPSDIAVEWESNGQPENNYKTTPPVLDSDGSFFLYSRLTVDKSRWQQGNVFSCSVMHEALHNHYTQKSLSLSPG
light 2: DVVMTQTPLTLSVTIGQPASISCKSSQSLSDSDGKTYLNWLLQRPGQSPKRLIYLVSKLDSGVPDRFTGSGSGTDFTLKISRVEAEDLGVYYCWQGAHFPRTFGGGTKLEIKRTVAAPSVFIFPPSDEQLKSGTASVVCLLNNFYPREAKVQWKVDNALQSGNSQESVTEQDSKDSTYSLSSTLTLSKADYEKHKVYACEVTHQGLSSPVTKSFNRGEC
notes: Bispecific IgG1 by Fab-arm exchange of the two parental antibodies; also called bsIgG1-huCD3-FEAL×CD30-T408-FEAR; BisIgG1-huCD3-FEAL×CD30-T408-FEAR
- binding result [1]: binds
- cytotoxicity IC50 (µg/mL) average, Karpas-299 cells (human CD30 [2]): 0.226 µg/mL
- cytotoxicity maximum lysis (%) average, Karpas-299 cells (human CD30 [2]): 41.3%
